*: point of attachment. Biotin = O=C1N[C@H]2[C@H](CS[C@H]2CCCCC(=O)*)N1
Biological target: T1, GST-PDZ domain #2 of human Zona Occludens-1 (ZO1) (human, UniProt Q07157 186-264)
T1 construct: second PDZ domain (PDZ domain #2) of human Zona Occludens-1 (ZO1), from plasmid pGEX-ZO1-2/3; also called GST-ZO1 PDZ domain #2; GST-ZO1-PDZ-2; source: E. coli BL21(DE3), purified (glutathione-Sepharose 4B); on the array: purified GST fusion protein
T1 sequence (looked up): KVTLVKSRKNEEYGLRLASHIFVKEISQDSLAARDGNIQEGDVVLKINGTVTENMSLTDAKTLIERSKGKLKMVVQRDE
Assay: AlphaScreen or HTRF; GST protein pre-bound to anti-GST-terbium donor antibody, biotinylated peptide pre-bound to streptavidin-d2 acceptor; serial 1:2 dilutions of both in a matrix; 25 mM HEPES pH 7.4, 150 mM NaCl, 5 mM MgCl2, 0.005% Tween-20; 1 hr incubation; one-site saturation binding fit; Kd at 3 nM GST-ZO1 PDZ domain #2
Conditions: both partners purified

Biotin-SRVKNLNSSRVPDLLV-OH (also called WT E peptide; Bt-WT peptide) [SARS-CoV-2 E WT peptide (Biotin-SRVKNLNSSRVPDLLV-COOH)]
Kd: 29 nM

— PMC8189464, “SARS-CoV-2 Envelope (E) protein interacts with PDZ-domain-2 of host tight junction protein ZO1” (PLoS ONE, 2021)
